Series [1] addresses methylmalonylated BSA, P02769.
The target in another series is T1, Cps1 (Mmut-/-;TgMCKMmut).
T1 sequence (Q8C196 39-1500, looked up): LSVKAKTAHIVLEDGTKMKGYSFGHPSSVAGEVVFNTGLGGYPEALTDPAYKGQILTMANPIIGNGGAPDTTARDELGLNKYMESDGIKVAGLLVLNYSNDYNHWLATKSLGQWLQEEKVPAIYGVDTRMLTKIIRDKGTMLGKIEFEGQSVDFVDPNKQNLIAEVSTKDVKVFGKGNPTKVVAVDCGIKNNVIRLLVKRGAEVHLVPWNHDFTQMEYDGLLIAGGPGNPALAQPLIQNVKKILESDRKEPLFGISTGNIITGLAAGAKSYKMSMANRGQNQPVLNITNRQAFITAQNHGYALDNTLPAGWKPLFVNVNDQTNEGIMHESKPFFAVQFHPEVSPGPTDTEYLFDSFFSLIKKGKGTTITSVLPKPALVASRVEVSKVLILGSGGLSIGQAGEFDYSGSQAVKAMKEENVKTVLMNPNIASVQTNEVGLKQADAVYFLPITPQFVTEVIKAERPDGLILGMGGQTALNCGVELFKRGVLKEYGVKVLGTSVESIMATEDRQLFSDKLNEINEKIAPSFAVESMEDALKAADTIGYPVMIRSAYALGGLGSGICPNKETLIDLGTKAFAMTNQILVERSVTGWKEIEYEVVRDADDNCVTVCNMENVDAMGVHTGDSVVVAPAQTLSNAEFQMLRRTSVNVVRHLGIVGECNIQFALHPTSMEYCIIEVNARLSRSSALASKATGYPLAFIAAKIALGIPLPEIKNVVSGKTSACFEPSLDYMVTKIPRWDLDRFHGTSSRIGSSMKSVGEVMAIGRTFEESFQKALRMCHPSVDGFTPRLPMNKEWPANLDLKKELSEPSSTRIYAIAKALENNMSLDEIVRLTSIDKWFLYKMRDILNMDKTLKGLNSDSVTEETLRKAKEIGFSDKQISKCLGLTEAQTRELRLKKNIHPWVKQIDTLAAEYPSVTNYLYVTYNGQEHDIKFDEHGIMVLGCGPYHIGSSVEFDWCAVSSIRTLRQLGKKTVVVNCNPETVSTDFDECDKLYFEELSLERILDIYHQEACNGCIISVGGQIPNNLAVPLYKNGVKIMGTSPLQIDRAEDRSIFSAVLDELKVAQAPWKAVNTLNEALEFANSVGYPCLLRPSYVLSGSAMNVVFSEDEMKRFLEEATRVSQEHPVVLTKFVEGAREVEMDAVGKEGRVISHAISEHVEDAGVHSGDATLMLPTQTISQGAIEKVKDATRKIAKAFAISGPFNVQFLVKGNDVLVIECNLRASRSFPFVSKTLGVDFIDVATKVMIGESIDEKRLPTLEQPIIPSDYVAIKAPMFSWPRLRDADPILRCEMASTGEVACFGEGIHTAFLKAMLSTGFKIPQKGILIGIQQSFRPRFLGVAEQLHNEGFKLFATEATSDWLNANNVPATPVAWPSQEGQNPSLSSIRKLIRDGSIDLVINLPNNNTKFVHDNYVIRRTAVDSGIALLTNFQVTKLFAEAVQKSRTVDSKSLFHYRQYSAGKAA

In series [2] the target is propionylated BSA, P02769.
Sequence of propionylated BSA, P02769 (P02769 25-607): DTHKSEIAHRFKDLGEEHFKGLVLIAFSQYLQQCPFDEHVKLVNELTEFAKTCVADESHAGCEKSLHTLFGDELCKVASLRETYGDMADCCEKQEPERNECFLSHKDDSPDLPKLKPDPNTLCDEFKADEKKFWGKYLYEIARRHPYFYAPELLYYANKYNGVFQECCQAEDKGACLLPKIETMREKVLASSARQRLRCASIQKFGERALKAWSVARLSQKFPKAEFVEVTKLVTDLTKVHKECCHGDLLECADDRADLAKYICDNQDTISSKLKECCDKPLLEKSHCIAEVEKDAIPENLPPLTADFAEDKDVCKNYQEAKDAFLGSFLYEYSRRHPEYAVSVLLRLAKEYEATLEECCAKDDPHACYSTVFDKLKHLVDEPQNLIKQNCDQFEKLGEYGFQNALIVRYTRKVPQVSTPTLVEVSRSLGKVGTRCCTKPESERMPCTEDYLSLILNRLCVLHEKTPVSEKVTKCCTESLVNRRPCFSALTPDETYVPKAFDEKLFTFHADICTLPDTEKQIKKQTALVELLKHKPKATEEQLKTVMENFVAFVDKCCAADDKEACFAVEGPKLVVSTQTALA

Sequence of methylmalonylated BSA, P02769 (P02769 25-607): as above

B1: methylmalonylated K4R mutated SIRT5-FLAG (protein)
chain: SSSMADFRKFFAKAKHIVIISGAGVSAESGVPTFRGAGGYWRRWQAQDLATPLAFAHNPSRVWEFYHYRREVMGSREPNAGHRAIAECETRLGKQGRRVVVITQNIDELHRRAGTRNLLEIHGSLFKTRCTSCGVVAENYKSPICPALSGKGAPEPGTQDASIPVEKLPRCEEAGCGGLLRPHVVWFGENLDPAILEEVDRELAHCDLCLVVGTSSVVYPAAMFAPQVAARGVPVAEFNTETTPATNRFRFHFQGPCGTTLPEALACHENETVSEFGGDYKDDDDK
As to B1, the “removal of methylmalonylation from methylmalonylated BSA (in vitro deacylation assay, Western blot)” value (from here on “removal of methylmalonylation”) in series [1] is reported as “SIRT5 K4R did not exhibit enzymatic inhibition after hyper-methylmalonylation/acylation modifications”.

B2: K4R mutated SIRT5-FLAG (protein)
chain: SSSMADFRKFFAKAKHIVIISGAGVSAESGVPTFRGAGGYWRRWQAQDLATPLAFAHNPSRVWEFYHYRREVMGSREPNAGHRAIAECETRLGKQGRRVVVITQNIDELHRRAGTRNLLEIHGSLFKTRCTSCGVVAENYKSPICPALSGKGAPEPGTQDASIPVEKLPRCEEAGCGGLLRPHVVWFGENLDPAILEEVDRELAHCDLCLVVGTSSVVYPAAMFAPQVAARGVPVAEFNTETTPATNRFRFHFQGPCGTTLPEALACHENETVSEFGGDYKDDDDK
B2: the “stated: methylmalonylation of immunoprecipitated Cps1 reduced (AP42053 immunoblot)” value with Cps1 (Mmut-/-;TgMCKMmut) is “AP42053 bands at about 150 kDa are faint in the 2 SuperSIRT5-AAV Mmut-/- lanes and clear in the 2 GFP-AAV Mmut-/- lanes, with like Cps1 bands; the FLAG blot of the extracts shows SuperSIRT5-FLAG below 37 kDa only in the SuperSIRT5-AAV lanes”. Besides, the “removal of methylmalonylation” value in series [1] is on record as “mutant SIRT5 K4R had the ability to remove methylmalonylation from BSA regardless of whether SIRT5 K4R was acylated or not”.

B3: SIRT5-FLAG (Addgene, 13816) (protein)
chain: SSSMADFRKFFAKAKHIVIISGAGVSAESGVPTFRGAGGYWRKWQAQDLATPLAFAHNPSRVWEFYHYRREVMGSKEPNAGHRAIAECETRLGKQGRRVVVITQNIDELHRKAGTKNLLEIHGSLFKTRCTSCGVVAENYKSPICPALSGKGAPEPGTQDASIPVEKLPRCEEAGCGGLLRPHVVWFGENLDPAILEEVDRELAHCDLCLVVGTSSVVYPAAMFAPQVAARGVPVAEFNTETTPATNRFRFHFQGPCGTTLPEALACHENETVSEFGGDYKDDDDK
For the protein B3, the “depropionylation of propionylated BSA (in vitro deacylation assay, Western blot)” value in series [2] is recorded as “SIRT5 mediates the depropionylation of BSA substrate”.

B4: propionylated SIRT5-FLAG (protein)
chain: SSSMADFRKFFAKAKHIVIISGAGVSAESGVPTFRGAGGYWRKWQAQDLATPLAFAHNPSRVWEFYHYRREVMGSKEPNAGHRAIAECETRLGKQGRRVVVITQNIDELHRKAGTKNLLEIHGSLFKTRCTSCGVVAENYKSPICPALSGKGAPEPGTQDASIPVEKLPRCEEAGCGGLLRPHVVWFGENLDPAILEEVDRELAHCDLCLVVGTSSVVYPAAMFAPQVAARGVPVAEFNTETTPATNRFRFHFQGPCGTTLPEALACHENETVSEFGGDYKDDDDK
For B4, the “depropionylation of propionylated BSA (in vitro deacylation assay, Western blot)” value in series [2] is “this activity is impaired when SIRT5 is propionylated”.

B5: FLAG-SIRT1 (Addgene, 1791) (protein)
chain: MADEAALALQPGGSPSAAGADREAASSPAGEPLRKRPRRDGPGLERSPGEPGGAAPEREVPAAARGCPGAAAAALWREAEAEAAAAGGEQEAQATAAAGEGDNGPGLQGPSREPPLADNLYDEDDDDEGEEEEEAAAAAIGYRDNLLFGDEIITNGFHSCESDEEDRASHASSSDWTPRPRIGPYTFVQQHLMIGTDPRTILKDLLPETIPPPELDDMTLWQIVINILSEPPKRKKRKDINTIEDAVKLLQECKKIIVLTGAGVSVSCGIPDFRSRDGIYARLAVDFPDLPDPQAMFDIEYFRKDPRPFFKFAKEIYPGQFQPSLCHKFIALSDKEGKLLRNYTQNIDTLEQVAGIQRIIQCHGSFATASCLICKYKVDCEAVRGDIFNQVVPRCPRCPADEPLAIMKPEIVFFGENLPEQFHRAMKYDKDEVDLLIVIGSSLKVRPVALIPSSIPHEVPQILINREPLPHLHFDVELLGDCDVIINELCHRLGGEYAKLCCNPVKLSEITEKPPRTQKELAYLSELPPTPLHVSEDSSSPERTSPPDSSVIVTLLDQAAKSNDDLDVSESKGCMEEKPQEVQTSRNVESIAEQMENPDLKNVGSSTGEKNERTSVAGTVRKCWPNRVAKEQISRRLDGNQYLFLPPNRYIFHGAEVYSDSEDDVLSSSSCGSNSDSGTCQSPSLEEPMEDESEIEEFYNGLEDEPDVPERAGGAGFGTDGDDQEAINEAISVKQEVTDMNYPSNKS
As for B5, in series [1], the “removal of methylmalonylation” value was “SIRT1 (FIG. 13A) and SIRT5 (FIG. 13B) were the most effective at removing methylmalonylation from the methylmalonylated BSA substrates”.

These data come from patent US20230181672.
